This passage reports fold higher binding than the next group of RAGE binders (AnxII, S100A12, and S100A8/9) results from patent publication EP1986009A1.

For the experiment, the target named is Recombinant human RAGE/Fc chimera (R&D Systems cat. No. 1145-RG) (human). Kind of experiment: SPR (Biacore), 200 nM protein over immobilized RAGE/Fc, Req or late association response. On the technique in general: Surface plasmon resonance follows binding to a sensor surface in real time, without labels.
Sequence of Recombinant human RAGE/Fc chimera (R&D Systems cat. No. 1145-RG) (human) (Q15109 23-344, change not shown, form in doubt): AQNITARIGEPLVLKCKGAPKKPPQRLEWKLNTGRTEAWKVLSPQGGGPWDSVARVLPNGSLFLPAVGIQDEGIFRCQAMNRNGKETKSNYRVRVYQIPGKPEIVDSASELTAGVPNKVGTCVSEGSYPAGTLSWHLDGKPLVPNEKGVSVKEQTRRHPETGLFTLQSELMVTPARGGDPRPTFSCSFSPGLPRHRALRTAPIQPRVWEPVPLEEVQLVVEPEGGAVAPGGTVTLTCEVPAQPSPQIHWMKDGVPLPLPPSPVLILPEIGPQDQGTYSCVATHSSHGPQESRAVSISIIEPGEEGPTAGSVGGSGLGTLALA

“Recombinant S100A9, expressed as the full-length sequence of native protein in E. coli (ligand)”: the fold higher binding than the next group of RAGE binders (AnxII, S100A12, and S100A8/9) is more than 10 fold.
